In patent US20140242111A1:

B1: SCI-57 without RGS-His tag (single-chain insulin analog secreted by L. lactis NZ9000(pNZPnisA:uspSCI-57)) (ligand)
chain: FVNQHLCGSDLVEALYLVCGERGFFYTDPTGGGPRRGIVEQCCHSICSLYQLENYCN
B2: RGS-His-tagged SCI-57 (single-chain insulin analog secreted by L. lactis NZ9000(pNZPnisA:uspSCI-57his), usp45 signal peptide cleaved) (ligand)
chain: FVNQHLCGSDLVEALYLVCGERGFFYTDPTGGGPRRGIVEQCCHSICSLYQLENYCNRGSHHHHHH

Target: insulin receptor on differentiated 3T3-L1 adipocytes (mouse (murine 3T3-L1 cell line)) (UniProt P15208)
Experiment: cell-based or functional assay

Sequence of insulin receptor on differentiated 3T3-L1 adipocytes (mouse (murine 3T3-L1 cell line)) (P15208 28-1372): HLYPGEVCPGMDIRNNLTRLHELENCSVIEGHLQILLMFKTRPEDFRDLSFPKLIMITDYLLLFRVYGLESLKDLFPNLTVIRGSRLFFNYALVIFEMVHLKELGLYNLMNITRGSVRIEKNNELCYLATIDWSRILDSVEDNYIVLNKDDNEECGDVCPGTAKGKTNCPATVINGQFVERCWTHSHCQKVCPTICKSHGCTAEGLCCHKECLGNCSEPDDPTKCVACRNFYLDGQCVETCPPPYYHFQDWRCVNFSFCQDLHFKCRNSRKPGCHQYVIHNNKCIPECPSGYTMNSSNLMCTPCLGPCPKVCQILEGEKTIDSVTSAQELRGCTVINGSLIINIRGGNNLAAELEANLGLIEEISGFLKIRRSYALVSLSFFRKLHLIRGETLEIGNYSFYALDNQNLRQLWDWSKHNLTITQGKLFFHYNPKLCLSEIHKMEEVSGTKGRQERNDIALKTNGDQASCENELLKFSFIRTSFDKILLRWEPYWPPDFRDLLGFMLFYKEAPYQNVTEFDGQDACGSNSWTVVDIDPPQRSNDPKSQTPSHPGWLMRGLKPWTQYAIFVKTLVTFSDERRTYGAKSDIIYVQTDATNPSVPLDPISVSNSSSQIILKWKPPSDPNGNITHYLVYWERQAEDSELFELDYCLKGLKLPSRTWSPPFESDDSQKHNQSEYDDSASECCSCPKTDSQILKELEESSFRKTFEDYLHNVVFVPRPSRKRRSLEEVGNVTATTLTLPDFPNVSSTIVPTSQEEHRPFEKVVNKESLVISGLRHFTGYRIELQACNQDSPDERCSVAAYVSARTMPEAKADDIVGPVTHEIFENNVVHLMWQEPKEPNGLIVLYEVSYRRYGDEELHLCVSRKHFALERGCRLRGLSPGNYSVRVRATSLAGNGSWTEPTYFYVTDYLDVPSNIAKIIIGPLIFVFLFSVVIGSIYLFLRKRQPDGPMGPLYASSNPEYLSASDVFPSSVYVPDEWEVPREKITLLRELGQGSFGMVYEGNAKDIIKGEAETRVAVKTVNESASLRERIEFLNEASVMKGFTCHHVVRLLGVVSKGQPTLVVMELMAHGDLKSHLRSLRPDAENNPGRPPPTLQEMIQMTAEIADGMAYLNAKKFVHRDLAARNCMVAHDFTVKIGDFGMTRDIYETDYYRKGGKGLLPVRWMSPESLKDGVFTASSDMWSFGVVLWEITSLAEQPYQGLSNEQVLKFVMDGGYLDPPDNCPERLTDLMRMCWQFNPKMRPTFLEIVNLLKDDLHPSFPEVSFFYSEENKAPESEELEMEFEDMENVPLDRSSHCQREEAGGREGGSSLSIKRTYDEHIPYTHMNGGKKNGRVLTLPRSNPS

Row | Binder | Insulin activity (no tag), p-Akt on 3T3-L1 adipocytes; culture: M17 only (nM commercial insulin (equivalent)) | Insulin activity (no tag), p-Akt on 3T3-L1 adipocytes; culture: M17 with 50 mM sodium phosphates (nM commercial insulin (equivalent)) | Insulin activity (no tag), p-Akt on 3T3-L1 adipocytes; culture: M17 with NaOH addition at 1.5 hr (nM commercial insulin (equivalent)) | Insulin activity (with RGS-His tag), p-Akt on 3T3-L1 adipocytes; culture: M17 with NaOH addition at 0.5 hr (nM commercial insulin (equivalent)) | Insulin activity (with RGS-His tag), p-Akt on 3T3-L1 adipocytes; culture: M17 with NaOH addition at 1.5 hr (nM commercial insulin (equivalent)) | Insulin activity (with RGS-His tag), p-Akt on 3T3-L1 adipocytes; culture: M17 with NaOH addition at 2.5 hr (nM commercial insulin (equivalent)) | Insulin activity (with RGS-His tag), p-Akt on 3T3-L1 adipocytes; culture: M17 with NaOH addition every hour (nM commercial insulin (equivalent)) | p-Akt(Ser473) Western blot on differentiated 3T3-L1 adipocytes, quantified from three independent experiments; supernatant of induced culture treated with NaOH (scale: nM commercial insulin)
1 | B1 | < 1 | < 1 | > 1 |  |  |  |  | 
2 | B2 |  |  |  | 1 | 1 | < 1 | 1 | 1
